Values of other authors as cited in article PMC3309041.

Molecular target: IL-8 (monomeric) (Homo sapiens) (UniProt P10145)
Conditions: cited from earlier work

Chain of CXCR1 N-terminal peptide N-terminus (P21109 11-44): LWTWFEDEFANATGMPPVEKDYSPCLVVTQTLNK
Chain of IL-8 (monomeric) (Homo sapiens) (P10145 28-99): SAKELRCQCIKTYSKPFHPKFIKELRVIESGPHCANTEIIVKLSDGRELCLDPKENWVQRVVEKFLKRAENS

CXCR1 N-terminal peptide N-terminus (from UniProt P21109)
Kd: 8.6 µM
